From PMC8028046 (2021)

Biological target: amyloid-beta fibrils (Homo sapiens, UniProt P05067)
Test: SPR

Sequence of amyloid-beta fibrils (P05067 672-713): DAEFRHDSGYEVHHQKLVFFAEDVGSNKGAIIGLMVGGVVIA

Kd: ~130 nM
B1: proSP-C BRICHOS BRICHOS (protein)
chain: TATFSIGSTGLVVYDYQQLLIAYKPAPGTCCYIMKIAPESIPSLEALTRKVHNFQMECSLQAKPAVPTSKLGQAEGRDAGSAPSGGDPAFLGMAVSTLCGEVPLYYI
